Drawing on patent publication US20110318827A1 (COMMISSARIAT A L ENERGIE ATOMIQUE ET AUX ENERGIES …, published 2011), this text covers Ki and Kd for three molecules.

In test [1] the target is somatostatin receptor SST-5 (CHO-SST-5 (mb)) (Homo sapiens (Human), UniProt P35346 1-364). Description: radioligand competition binding, CHO-SST-5 (mb). (In a radioligand displacement assay an active substance lowers the binding of a labelled ligand.)
In test [2] the target is T1, Somatostatin receptor subtype 2 (SST-2) on rat pancreatic carcinoma AR4-2J cells (rat, UniProt P30680 1-369).
T1 construct: whole, on cells; Whole-cell suspension; the cells express predominantly, not only, SST-2; also called AR2-2J cells
Description: competition with [125I]-[Tyr1]-somatostatin on AR4-2J cell suspension. As for the experimental part: (§1) The cells were grown in tissue culture dishes (Falcon) which were incubated at 37° C. in an atmosphere of 5% CO₂ and 95% humidified air in DMEM medium with 4.5 g/l glucose supplemented with 1% L-glutamine, 20% foetal calf serum, 1% penicillin/streptomycin and amphotericin B (1 μg/mL). Subculturing was performed with a trypsin/EDTA (0.05%/0.02% w/v) solution. All products were purchased from Sigma (Saint-Quentin Fallavier; France). At 100% confluence, the medium was removed and the cells were harvested using Versen buffer (PBS+5 mM EDTA), washed with ice-cold phosphate buffer and finally centrifuged at 1000 g for 7 min (4° C.). The pellet was suspended in ice-cold buffer (10 mM MgCl₂, 0.25% BSA, 50 mM HEPES pH7.5, 1% protease inhibitor cocktail (Sigma) and cells suspension was stored in ice before binding experiments.
(§2) All binding experiments for AR4-2J cells were done at 37° C. in 10 mM MgCl₂, 0.25% BSA, 50 mM HEPES pH7.5, 1% protease inhibitor cocktail (Sigma). […] Non-specific binding was determined in the presence of 5 μM somatostatin-28. Incubation was terminated by addition of ice-cold washing buffer (Tris 10 mM pH7.2) and rapid filtration over Whatman GF/C glass fiber filters pre-soaked in 0.5% polyethylenimine. The filters activity was measured in a Cobra gamma counter. Each experiment has been performed in duplicates at least two times.

The target of test [3] is T2, somatostatin receptor SST-2 (CHO-SST-2 (mb)) (Homo sapiens (Human), UniProt P30874 1-369).
T2 construct: Printed as 'CHO-SST-2 (mb)'; also called SST-2 receptor
Description: radioligand competition binding, CHO-SST-2 (mb).

In test [4] the target is T1, Somatostatin receptor subtype 2 (SST-2) …. Description: competition with [125I]-[Tyr1]-somatostatin on AR4-2J cell suspension, filtration, Cheng-Prusoff. As for the experimental part:
as §1, §2

The target of test [5] is somatostatin receptor SST-3 (CHO-SST-3 (mb)) (Homo sapiens (Human), UniProt P32745 1-418). Description: radioligand competition binding, CHO-SST-3 (mb).
Test [6] addresses somatostatin receptor SST-1 (CHO-SST-1 (mb)) (Homo sapiens (Human), UniProt P30872 1-391). Description: radioligand competition binding, CHO-SST-1 (mb).

Bridge positions count the residues as written; N and C are the ends. Square brackets hold non-standard residues; d marks the D form. Ends that are not written are not given here.

T1 sequence (P30680 whole entry): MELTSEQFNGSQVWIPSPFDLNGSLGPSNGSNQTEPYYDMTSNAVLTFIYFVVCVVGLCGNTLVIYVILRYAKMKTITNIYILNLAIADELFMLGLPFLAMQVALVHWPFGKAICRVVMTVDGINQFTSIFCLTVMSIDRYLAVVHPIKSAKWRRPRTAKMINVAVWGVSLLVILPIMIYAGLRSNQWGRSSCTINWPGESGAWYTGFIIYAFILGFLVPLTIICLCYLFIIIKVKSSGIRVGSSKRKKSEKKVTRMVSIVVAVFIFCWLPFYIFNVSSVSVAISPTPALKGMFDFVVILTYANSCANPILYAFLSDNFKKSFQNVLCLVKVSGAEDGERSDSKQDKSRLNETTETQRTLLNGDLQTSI
T2 sequence (P30874 whole entry, form in doubt): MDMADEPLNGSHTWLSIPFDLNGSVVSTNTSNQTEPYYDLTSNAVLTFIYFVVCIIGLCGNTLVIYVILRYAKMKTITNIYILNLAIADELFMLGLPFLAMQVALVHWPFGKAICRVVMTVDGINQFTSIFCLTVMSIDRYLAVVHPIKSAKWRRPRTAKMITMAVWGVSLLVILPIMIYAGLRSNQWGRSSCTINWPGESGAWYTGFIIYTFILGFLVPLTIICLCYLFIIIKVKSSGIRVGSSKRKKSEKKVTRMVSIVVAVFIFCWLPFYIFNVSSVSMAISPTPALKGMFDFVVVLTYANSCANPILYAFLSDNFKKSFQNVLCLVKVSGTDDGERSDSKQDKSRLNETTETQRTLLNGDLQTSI
somatostatin receptor SST-1 (CHO-SST-1 (mb)), sequence (P30872 whole entry, form in doubt): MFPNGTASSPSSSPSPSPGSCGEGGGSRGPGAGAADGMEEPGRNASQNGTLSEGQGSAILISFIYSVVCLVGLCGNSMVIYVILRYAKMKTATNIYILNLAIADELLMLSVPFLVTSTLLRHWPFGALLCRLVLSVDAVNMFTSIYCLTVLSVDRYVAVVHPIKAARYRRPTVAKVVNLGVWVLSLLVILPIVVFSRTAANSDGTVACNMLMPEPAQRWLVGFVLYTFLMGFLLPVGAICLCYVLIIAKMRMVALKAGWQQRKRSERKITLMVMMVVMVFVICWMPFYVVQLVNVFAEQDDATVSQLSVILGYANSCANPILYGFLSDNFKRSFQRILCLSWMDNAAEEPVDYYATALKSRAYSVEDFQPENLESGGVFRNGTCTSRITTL
somatostatin receptor SST-5 (CHO-SST-5 (mb)), sequence (P35346 whole entry, form in doubt): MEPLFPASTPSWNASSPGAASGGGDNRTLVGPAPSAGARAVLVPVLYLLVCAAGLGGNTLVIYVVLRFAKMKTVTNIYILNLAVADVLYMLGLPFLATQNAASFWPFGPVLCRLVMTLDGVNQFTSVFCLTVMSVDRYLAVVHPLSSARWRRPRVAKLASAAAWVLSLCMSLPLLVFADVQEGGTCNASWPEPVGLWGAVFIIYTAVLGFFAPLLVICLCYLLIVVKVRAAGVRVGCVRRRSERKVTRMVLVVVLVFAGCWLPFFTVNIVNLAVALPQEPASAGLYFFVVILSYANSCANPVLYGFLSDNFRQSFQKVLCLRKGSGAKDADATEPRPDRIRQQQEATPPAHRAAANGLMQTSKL
somatostatin receptor SST-3 (CHO-SST-3 (mb)), sequence (P32745 whole entry, form in doubt): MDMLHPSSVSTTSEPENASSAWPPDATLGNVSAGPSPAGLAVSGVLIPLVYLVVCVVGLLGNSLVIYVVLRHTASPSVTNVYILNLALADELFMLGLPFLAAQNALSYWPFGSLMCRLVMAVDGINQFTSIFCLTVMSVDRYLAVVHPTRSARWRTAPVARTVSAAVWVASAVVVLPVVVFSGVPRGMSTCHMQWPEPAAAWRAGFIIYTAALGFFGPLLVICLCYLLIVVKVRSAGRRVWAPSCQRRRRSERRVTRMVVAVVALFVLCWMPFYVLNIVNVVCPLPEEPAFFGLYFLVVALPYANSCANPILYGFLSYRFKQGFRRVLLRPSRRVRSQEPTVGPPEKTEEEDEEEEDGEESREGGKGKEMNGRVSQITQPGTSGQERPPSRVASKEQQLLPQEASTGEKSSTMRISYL

B1: TcO[HTGRRRGG-RC-121] (peptide)
peptide: TGRRRGGFCYWKVCT
modifications: [TcO]3+ core chelated by the N-terminal HTGRRR tag; free N-terminus; the RC-121 part carries D-Phe, D-Trp, a C-terminal amide and the preserved disulfide bridge
Regarding B1, the Ki in test [1] stood at 30 nM; in test [3] it was 0.02 nM; in test [4], 0.066 nM; in test [5], 10 nM; in test [6], 58 nM. For the same molecule, the Kd in test [2] amounted to 0.06 nM.

B2: HTGRRRGG-RC-121 (peptide)
peptide: TGRRRGGFCYWKVCT
HELM: PEPTIDE1{T.G.R.R.R.G.G.[dF].C.Y.[dW].K.V.C.T.[am]}$PEPTIDE1,PEPTIDE1,9:R3-14:R3$$$V2.0
SMILES: CC(C)[C@@H]1NC(=O)[C@H](CCCCN)NC(=O)[C@@H](Cc2c[nH]c3ccccc23)NC(=O)[C@H](Cc2ccc(O)cc2)NC(=O)[C@@H](NC(=O)[C@@H](Cc2ccccc2)NC(=O)CNC(=O)CNC(=O)[C@H](CCCNC(=N)N)NC(=O)[C@H](CCCNC(=N)N)NC(=O)[C@H](CCCNC(=N)N)NC(=O)CNC(=O)[C@@H](N)[C@@H](C)O)CSSC[C@@H](C(=O)N[C@H](C(N)=O)[C@@H](C)O)NC1=O
notes: not complexed with Tc
Turning to B2, the values for the Ki in test [3] and in test [4] were 0.02 nM and 0.035 nM, respectively.

B3: RC-121 (peptide)
peptide: [dF]CY[dW]KVCT-NH2
modifications: disulfide 2-7
notes: Cyclic octapeptide somatostatin analog, made by solid phase synthesis
In test [4], B3 registered a Ki of 0.3 nM.

Usually Ki stands for the dissociation constant of the complex between target and ligand, obtained from inhibition or displacement. The low end stands for tighter binding, the high end for weaker binding. Broadly, the Kd is the free concentration of one partner at which half of the binding sites on the other are occupied at equilibrium, for simple one-to-one binding.
